Measured values from the nanobody polyreactivity screen of Harvey et al. (2022).

experiment: yeast display, Sf9 membrane polyspecificity reagent, FACS + sequencing; frameworks hold sequencing errors
In short: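 A nanobody's polyreactivity label depends on the gate it was sorted from. Yeast display cells were stained with 10% biotinylated, detergent-solubilized Sf9 membrane reagent for 1 hour at 4 °C, enriched on streptavidin microbeads and sorted by FACS. The low and high (top ~1%) gates were set on anti-HA fluorescence for expression and streptavidin fluorescence for reagent binding.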

| Sequence | polyreactivity (PSR sort gate) |
| --- | --- |
| QVQLVESGGGLVQAGGSLRLSCAASGRIFQSYAMGWYRQAPGKERELVAGIRAGGGRTYYADSVKGRFTISRDNAKNTVYLQMNSLKPEDTAVYYCAAGGRPYKLDFTRSDYWGEGTQVTVSS | low polyreactivity |
| QVQLVESGGGLVQAGGSLRLSCAASGRIFQVNAMGWYRQAPGKERELVAAITYSGGTTYYADSVKGRFTISRDNAKNTVYLQMNSLKPEDTAVYYCAAEGYGAQGDPWQYGYEYWGQGTQVTVSS | low polyreactivity |
| QVQLVESGGGLVQAGGSLRLSCAASGRIFQWYAMGSYRQAPGKERELVATISDGDSTNYADSVKGRFTISRDNAKNTVFAQMNSLKTEDTEVYYCAALDSYYDSYYWYDYWGQGTQVTVSS | high polyreactivity |
| QVQLVESGGGLVQAGGSLRLSCAASGRIFQYNAMGWYRQSPGKERELVAAIRRGGGSTYYADSVKGRFTISRDNAKNTVYLQMNSLKPEDTAVYYCAARRKRVSFYPEYDYWGQGTQVTVSS | low polyreactivity |
| QVQLVESGGGLVQAGGSLRLSCAASGRIFQYYAMGWYRQAPGKERELVAAIDQSGDTTYYADSVKGRFTISRDNAKNTVYLQMNSLKPEDTAVYYCAAGYDWAYHWVPQWMYFWGQGTQVTVSS | low polyreactivity |
| QVQLVESGGGLVQAGGSLRLSCAASGRIFQYYAMGWYRQAPGKERELVAAISRGGSTNYADSVKGRFTISRDNAKNTVYLQMNSLKPEDTAVYFCAADEYRYYFYRAGIGFDYWGQGTQVTVSS | low polyreactivity |
| QVQLVESGGGLVQAGGSLRLSCAASGRIFQYYAMGWYRQAPGKERELVAAISRTGSTYYADSVKGRFTISRDNGKNTVYLQMNRLNPEDTAVYYCAADYWPQSNRWVYFRYGYWGQGTQVTVSS | high polyreactivity |
| QVQLVESGGGLVQAGGSLRLSCAASGRIFQYYTMGWYRQAPGKERELVAAISYGGGSTYYADSVKGRFTISRDHAKNTVYLQMNSLKPEDTAVYYCNAVTYSRRYAYYYWGQGTQVTVSS | high polyreactivity |
| QVQLVESGGGLVQAGGSLRLSCAASGRIFQYYTMGWYRQAPGKERELVAAITWSSSRTYYADSVKGRVTISRDNAKNTVYLQMNSLKPEDTAVNYCAAEAQAAWNDYTYWGQGTQVTVSS | high polyreactivity |
| QVQLVESGGGLVQAGGSLRLSCAASGRIFRANAMGWYRQAPGKERELVAAISYRGGSTYYADSVKGRFTISRDNAKNTVYLQMNSLKPEDTAVYYCAADSDRSVWIYGYWGQGTQVTVSS | low polyreactivity |
| QVQLVESGGGLVQAGGSLRLSCAASGRIFRAYAMGWYRQAPGKEREFVAAITWSGGSTYYADSVKGRFTISRDNAKNTVYLQMNSLKPEDTAVYYCAARGYSYRRRSQQFDYWGQGTQVTVSS | high polyreactivity |
| QVQLVESGGGLVQAGGSLRLSCAASGRIFRAYAMGWYRQAPGKERELVAVITGSGGSTYYADSVKGRFTISRDNAKNTVYLQMNSLKPEDTAVYYCAAPVHTASGRWVPGYYYWGQGTQVTVSS | high polyreactivity |
| QVQLVESGGGLVQAGGSLRLSCAASGRIFRAYAMGWYRQAPRKERELVAAISYRGGSTYYADSVKGRFTISRDNAKNTVYLQMNSLKPEDTAVYDCAADSDRSVWIYGYWGQGTQVTVSS | low polyreactivity |
| QVQLVESGGGLVQAGGSLRLSCAASGRIFRDNAMGGYRQAPGKERELVASISSRTGRTYYADSVKGRFTISRDNAKNTVYLQMNSLKPEDTAVYYCAAAFIYRGPGSLKFDYWGQGTQVTVSS | low polyreactivity |
| QVQLVESGGGLVQAGGSLRLSCAASGRIFRDYAMGWYRQAPGKERELVAAITGSGGRTYYADSVKGRFTISRDTAKNTVYLQMNSLKPEDTAVYYCAAYLGRRGQEMDYWGQGTQVTVSS | high polyreactivity |
| QVQLVESGGGLVQAGGSLRLSCAASGRIFRENAMGWYRQAPGKERELVAAISSGGSTYYADSVKGRFTISRDNAKNTVYLQMNSLKPEDTAVYYCAADLSWSRVVFGDYDYWGQGTQVTVSS | low polyreactivity |

| Sequence | polyreactivity (PSR sort gate) |
| --- | --- |
| QVQLVESGGGLVQAGGSLRLSCAASGRIFRENAMGWYRQAPGKERELVASNSLSGTSTYYADSVKGRFTISRDNAKNTVYLQMNSLKPEDTAVYYCNGERLSTDPYDRNYWGQGTQVTVSS | low polyreactivity |
| QVQLVESGGGLVQAGGSLRLSCAASGRIFRFNAMGWYRQAPGKERELVAAITGSGGTTFYADSVKGRFTISRDNAKNTVYLQMNSLKPEDTAVYYCITLGNWRPVYNQPRYEYWGQGTQVTVSS | high polyreactivity |
| QVQLVESGGGLVQAGGSLRLSCAASGRIFRFYDMGWYRQAPVKESELVASISSTGGRTYYADSVKGRFTISRDNAKNTVYVQMNSLKPEDTAVYYCNATRGQYVGRYYYWGQGTQVTVSW | high polyreactivity |
| QVQLVESGGGLVQAGGSLRLSCAASGRIFRGNAMGWYRQAPGKEREMVAAISRRSGSTYYADSVKGRFTISRDNAKNTVYLQMNSLKPEDTAVYYCAATSSLGDFRYDYWGQVTQVTVSS | high polyreactivity |
| QVQLVESGGGLVQAGGSLRLSCAASGRIFRGYAMGWYRPAPGKERELVAAINWSGGSTDYADSVKGRFTISRDYAKNTVYLQMNSLKPEDTAVYYCSTSTCRGYSWGHGTQVTVSS | high polyreactivity |
| QVQLVESGGGLVQAGGSLRLSCAASGRIFRGYAMGWYRQAPGKERELVAAISQSGSSTYYADSVKGRFTISRDNAKNTVYLQMNSLKPEDTAVYFCAVKYLKHFGYWGQGTQVTVSS | high polyreactivity |
| QVQLVESGGGLVQAGGSLRLSCAASGRIFRGYAMGWYRQAPGKERELVARITSGGRTYYADSVKGRFTISRDNAKNTVYLQMNSLKPEDTAVYYCATVGRGYDERHNYWGQGTQVTVSS | high polyreactivity |
| QVQLVESGGGLVQAGGSLRLSCAASGRIFRGYLMGWYRQAPGKERELVAVITSGGRTYYADSVKGRFTISRDNAKNTVYLQMNSPKPEDTAVYYCATYPRYKPYYYWGQGTQVTVSS | low polyreactivity |
| QVQLVESGGGLVQAGGSLRLSCAASGRIFRGYTMGWYRTAPGKERELVAAISRSTGSTNYADSVKGRFTISRDNAKNTVYLQMNSLKPEDTAVYYCAAGPVDYGDWYYDVWFDYWGQGTQVTVSS | high polyreactivity |
| QVQLVESGGGLVQAGGSLRLSCAASGRIFRKYAMGWYRQAPGKERELVAAISVGGGSTRYADSEKGRFTISRDYAKYTVYLQMNSLKPEYTAVYYCAADWAYYVASYLYYTFDYWGQGTQVTVSS | low polyreactivity |
| QVQLVESGGGLVQAGGSLRLSCAASGRIFRKYAMGWYRQAPGTERELVATITLRGGSTYYADSVKGRFTISRDNGKNTVYLQMNSLKPEDTAVYYCATDITPAISVEYDYWGQGTQVTVSS | high polyreactivity |
| QVQLVESGGGLVQAGGSLRLSCAASGRIFRKYDMGWYRPAPGKERELVAAISGTGITYYADSVKGRFTISRDNAKNTVYLQMNSLKPEDTAVYYCARGSKPRAWSWAYPSATSIYDYWGQGTQVTVSS | low polyreactivity |
| QVQLVESGGGLVQAGGSLRLSCAASGRIFRLYAMGWYRQAPGKEREFVATITWIGGRTYYADSVTGRFTISRDNAKNTVYLQMNSLKPEDTAVYYCAADPGYTYEYWGQGTQVTVSS | low polyreactivity |
| QVQLVESGGGLVQAGGSLRLSCAASGRIFRLYAMGWYRQAPGKERELVATITSGGTYYADSVKGRFTISRDNAKNTVYLQMNSLKPEDTAVYYCAADVYPGYVGSEEYDYWGQGTQETVSS | low polyreactivity |
| QVQLVESGGGLVQAGGSLRLSCAASGRIFRLYAMGWYRQAPGKERELVATITSGGTYYADSVKGRFTISRDNAKNTVYLQMNSLKPEDTAVYYCTARRRLRYDYWGQGTQVTVSS | low polyreactivity |
